Results on one molecule are retold here after patent publication US20200308241A1 (published 2020).

Experiment [1] deals with T1, Purified EGFR (R&D Systems, Minneapolis, Minn.) (Homo sapiens (Human), UniProt P00533 25-645).
T1 construct: Bought protein coated on an ELISA plate; also called immobilized EGFR; EGF receptors
Kind of experiment: EGF-EGFR binding assay. Here is the method: (§1) Purified EGFR (R&D Systems, Minneapolis, Minn.) was diluted in coating buffer (0.2 M sodium carbonate/bicarbonate pH 9.4, 0.5 1 g/mL) and immobilized on an ELISA plate by incubation at 4° C. overnight. […] The peroxidase reaction was stopped 30 min after the addition of 0.5 M H₂SO₄ ([…]/well), and the absorbance was measured at 450 nm with a multichannel microtiter plate reader.

The target in experiment [2] is T1, Purified EGFR (R&D Systems, …). Kind of experiment: ELISA, EGFR on the plate, his6-tagged ligand 0-50 nM, HRP anti-his6 detection. On the procedure: as §1

B1: mGM-CSF-hEGF fusion protein of Example 1 (other)
chain: SPITVTRPWKHVEAIKEALNLLDDMPVTLNEEVEVVSNEFSFKKLTCVQTRLKIFEQGLRGNFTKLKGALNMTASYYQTYCPPTPETDCETQVTTYADFIDSLKTFLTDIPFECKKPGQKVPGVGVPGVGNSDSECPLSHDGYCLHDGVCMYIEALDKYACNCVVGYIGERCQYRDLKWWELRHHHHHH
notes: The assays call it his6-tagged; also called GM-CSF-EGF conjugate; GM-CSF-EGF fusion protein
As for B1, the Kd in experiment [1] is approximately 0.01 µM; in experiment [2], less than 0.005 µM.
